According to patent publication US20230380451A1, “MEANS AND METHODS TO DETOXIFY MYCOTOXINS” (priority 2020, published 2023):

Assay: Storage stability in storage buffer at different temperatures, residual DON transformation activity
Format: biochemical
Conditions: for Relative DON transformation activity: storage buffer
Protocol: To determine the transformation of DON to epi-THS by Akr I-III, described herein, the following assay was performed. An assay buffer was prepared containing 40 ppm DON, 1 mM NADPH in Teorell Stenhagen (TS) buffer, pH 6.0 (Östling and Virtama, Acta Physiologica Scandinavica, 1946, 11:4, 289-293). Tubes containing the assay buffer were transferred in a heating block at 30° C. The reaction was started by addition of Akr I-III to a final concentration of 200 nM in a final reaction volume of 200 μL. Samples were taken before reaction start, and 2, 5, 10, 15 and 20 min after reaction start. DON transformation reactions in these samples were stopped by mixing with absolute methanol at a 1:2 ratio, followed by a 1:100 dilution with 40% methanol. The concentrations of DON and epi-THS in the samples were determined with liquid chromatography-mass spectrometry (LC-MS) on a Sciex 5500 triple quadrupole mass spectrometer coupled to Agilent 1290 series UHPLC system, using the following MS parameters: Acquisition duration: 4 min; Scan Type: MRM (MRM); Polarity: Negative; Ion Source: Turbo Spray.
The storage stability of Akr I-III was tested by incubation of 5 μM enzyme solutions in storage buffer (50 mM Tris pH 9.0, 0.5M NaCl, 50% Glycerol), for 60 min in a thermocycler (Mastercycler, Eppendorf) set to gradient mode from 30° C. to 50° C. Throughout the incubation, samples were removed and placed on ice until DON transformation assays were performed as described in Example 3 to determine enzyme activities. The starting activity at time 0 min was set to 100% and the relative residual activities were determined throughout the incubation. Akr I retained more than 33% activity during 60 min in pH 6 at temperatures from 29.9° C. to 46.0° C. Akr III retained 15% to 90% activity during 20 min in pH 6 at temperatures from 29.9° C. to 40.7° C.

[1] = 29.9° C., 0 min (starting activity set to 100%)
[2] = 35.3° C., 0 min (starting activity set to 100%)
[3] = 37.9° C., 0 min (starting activity set to 100%)
[4] = 40.7° C., 0 min (starting activity set to 100%)
[5] = 43.4° C., 0 min (starting activity set to 100%)
[6] = 46.0° C., 0 min (starting activity set to 100%)
[7] = 50.8° C., 0 min (starting activity set to 100%)

B1: Akr II: artificial amino acid sequence, variant of a wild type aldo-keto reductase (protein)
chain: MRTTEIAQGLKVSNLCIGAGPLGGMPTAFGYDVSEERGIATVQAVFDSPINFMDTSSEYGGSEARIGKVIREGLMPKGFVISSKADAEGEGVGRRGDFSAKQVRASFELSLERLGLTHLDVYFLHDPEKFPFEQVMARGGAMEELLRLKDEGLVGLVGVAGGDVLEMARYVDTGSLDILLNYGRYTLLDRSADSLITKVSDAGMAFLNAGPYASGLLAAPRGGSAWYQYAPPDATALQAVDQLHELCESFDVSLRSVALQFSMRDPRITSTVVGLSRPERVRALLDDEAAEIPAELWEQLPAPLNGDIVLPG
modifications: ArkII
Relative DON transformation activity [1]: 100.00% | Relative DON transformation activity (29.9° C., 5 min): 95.8% | Relative DON transformation activity (29.9° C., 10 min): 91.6% | Relative DON transformation activity (29.9° C., 20 min): 90.3% | Relative DON transformation activity (29.9° C., 35 min): 89.4% | Relative DON transformation activity (29.9° C., 50 min): 84.1% | Relative DON transformation activity (29.9° C., 60 min): 86.8% | Relative DON transformation activity [2]: 100.00% | Relative DON transformation activity (35.3° C., 5 min): 91.9% | Relative DON transformation activity (35.3° C., 10 min): 92.5% | Relative DON transformation activity (35.3° C., 20 min): 86.0% | Relative DON transformation activity (35.3° C., 35 min): 77.4% | Relative DON transformation activity (35.3° C., 50 min): 49.6% | Relative DON transformation activity (35.3° C., 60 min): 46.4% | Relative DON transformation activity [3]: 100.00% | Relative DON transformation activity (37.9° C., 5 min): 90.5% | Relative DON transformation activity (37.9° C., 10 min): 80.2% | Relative DON transformation activity (37.9° C., 20 min): 65.0% | Relative DON transformation activity (37.9° C., 35 min): 38.1% | Relative DON transformation activity (37.9° C., 50 min): 10.6% | Relative DON transformation activity (37.9° C., 60 min): 6.2% | Relative DON transformation activity [4]: 100.00% | Relative DON transformation activity (40.7° C., 5 min): 61.5% | Relative DON transformation activity (40.7° C., 10 min): 56.1% | Relative DON transformation activity (40.7° C., 20 min): 15.5% | Relative DON transformation activity (40.7° C., 35 min): 11.3% | Relative DON transformation activity (40.7° C., 50 min): 0.00% | Relative DON transformation activity (40.7° C., 60 min): 0.00% | Relative DON transformation activity [5]: 100.00% | Relative DON transformation activity (43.4° C., 5 min): 39.2% | Relative DON transformation activity (43.4° C., 10 min): 34.9% | Relative DON transformation activity (43.4° C., 20 min): 21.9% | Relative DON transformation activity (43.4° C., 35 min): 7.1% | Relative DON transformation activity (43.4° C., 50 min): 0.00% | Relative DON transformation activity (43.4° C., 60 min): 0.00% | Relative DON transformation activity [6]: 100.00% | Relative DON transformation activity (46.0° C., 5 min): 2.9% | Relative DON transformation activity (46.0° C., 10 min): 4.7% | Relative DON transformation activity (46.0° C., 20 min): 0.00% | Relative DON transformation activity (46.0° C., 35 min): 2.7% | Relative DON transformation activity (46.0° C., 50 min): 0.00% | Relative DON transformation activity (46.0° C., 60 min): 0.00% | Relative DON transformation activity [7]: 100.00% | Relative DON transformation activity (50.8° C., 5 min): 4.7% | Relative DON transformation activity (50.8° C., 10 min): 5.7% | Relative DON transformation activity (50.8° C., 20 min): 9.4% | Relative DON transformation activity (50.8° C., 35 min): 2.4% | Relative DON transformation activity (50.8° C., 50 min): 0.00% | Relative DON transformation activity (50.8° C., 60 min): 0.00%

B2: Akr III: artificial amino acid sequence, variant of a wild type aldo-keto reductase (protein)
chain: MRTTEIAQGLKVSNLCIGAGPLGGMPTAFGYDVSEERGIATVQAVFDSPINFMDTSSEYGGSEARIGKVIREGRMPKGFVISSKADAEGEGVGRRGDFSAKQVRASFELSLERLGLTHLDVYFLHDPEKFPFEQVMARGGAMEELLRLKDEGLVGLVGVAGGDVLEMARYVDTGSLDILLNYGRYTILDRSADSLITKVSDAGMAFLNAGPYASGLLAAPRGGSAWYQYAPPDATALQAVDQLHELCESFDVSLRSVALQFSMRDPRITSTVVGLSRPERVRALLDDEAAEIPAELWEQLPAPLNGDIVLPR
modifications: ArkIII
retained activity (during 60 min in pH 6 at temperatures from 29.9° C. to 46.0° C.): more than 50% | Relative DON transformation activity [1]: 100.00% | Relative DON transformation activity (29.9° C., 5 min): 89.1% | Relative DON transformation activity (29.9° C., 10 min): 91.6% | Relative DON transformation activity (29.9° C., 20 min): 90.3% | Relative DON transformation activity (29.9° C., 35 min): 93.1% | Relative DON transformation activity (29.9° C., 50 min): 74.0% | Relative DON transformation activity (29.9° C., 60 min): 72.2% | Relative DON transformation activity [2]: 100.00% | Relative DON transformation activity (35.3° C., 5 min): 96.00% | Relative DON transformation activity (35.3° C., 10 min): 65.2% | Relative DON transformation activity (35.3° C., 20 min): 98.6% | Relative DON transformation activity (35.3° C., 35 min): 75.2% | Relative DON transformation activity (35.3° C., 50 min): 80.2% | Relative DON transformation activity (35.3° C., 60 min): 104.3% | Relative DON transformation activity [3]: 100.00% | Relative DON transformation activity (37.9° C., 5 min): 94.01% | Relative DON transformation activity (37.9° C., 10 min): 74.5% | Relative DON transformation activity (37.9° C., 20 min): 43.9% | Relative DON transformation activity (37.9° C., 35 min): 75.2% | Relative DON transformation activity (37.9° C., 50 min): 80.9% | Relative DON transformation activity (37.9° C., 60 min): 78.6% | Relative DON transformation activity [4]: 100.00% | Relative DON transformation activity (40.7° C., 5 min): 104.1% | Relative DON transformation activity (40.7° C., 10 min): 76.1% | Relative DON transformation activity (40.7° C., 20 min): 81.6% | Relative DON transformation activity (40.7° C., 35 min): 104.5% | Relative DON transformation activity (40.7° C., 50 min): 75.8% | Relative DON transformation activity (40.7° C., 60 min): 105.1% | Relative DON transformation activity [5]: 100.00% | Relative DON transformation activity (43.4° C., 5 min): 83.4% | Relative DON transformation activity (43.4° C., 10 min): 68.1% | Relative DON transformation activity (43.4° C., 20 min): 66.7% | Relative DON transformation activity (43.4° C., 35 min): 89.3% | Relative DON transformation activity (43.4° C., 50 min): 81.3% | Relative DON transformation activity (43.4° C., 60 min): 91.8% | Relative DON transformation activity [6]: 100.00% | Relative DON transformation activity (46.0° C., 5 min): 97.7% | Relative DON transformation activity (46.0° C., 10 min): 62.6% | Relative DON transformation activity (46.0° C., 20 min): 62.5% | Relative DON transformation activity (46.0° C., 35 min): 58.4% | Relative DON transformation activity (46.0° C., 50 min): 23.3% | Relative DON transformation activity (46.0° C., 60 min): 50.4% | Relative DON transformation activity [7]: 100.00% | Relative DON transformation activity (50.8° C., 5 min): 77.4% | Relative DON transformation activity (50.8° C., 10 min): 72.7% | Relative DON transformation activity (50.8° C., 20 min): 19.5% | Relative DON transformation activity (50.8° C., 35 min): 16.6% | Relative DON transformation activity (50.8° C., 50 min): 10.9% | Relative DON transformation activity (50.8° C., 60 min): 16.0%
